Our source for the inhibition of LPS-stimulated NF-κB/p65 nuclear translocation in differentiated THP-1 cells by DYN 1-7 and reduction of LPS-stimulated IL-1β and TNF-α release from differentiated THP-1 cells by DYN 1-7 (0.1 μM, 1 nM, 10 pM; 24 hr; AlphaLISA); reversed by ML-190 values is paper PMC4824444.

The target in test [1] is kappa-opioid peptide (KOP) receptor (human (endogenous in THP-1)) (UniProt P41145).
The target is the same in test [2]. This is another data set of the same source.

Sequence of UniProt P41145 (P41145 whole entry): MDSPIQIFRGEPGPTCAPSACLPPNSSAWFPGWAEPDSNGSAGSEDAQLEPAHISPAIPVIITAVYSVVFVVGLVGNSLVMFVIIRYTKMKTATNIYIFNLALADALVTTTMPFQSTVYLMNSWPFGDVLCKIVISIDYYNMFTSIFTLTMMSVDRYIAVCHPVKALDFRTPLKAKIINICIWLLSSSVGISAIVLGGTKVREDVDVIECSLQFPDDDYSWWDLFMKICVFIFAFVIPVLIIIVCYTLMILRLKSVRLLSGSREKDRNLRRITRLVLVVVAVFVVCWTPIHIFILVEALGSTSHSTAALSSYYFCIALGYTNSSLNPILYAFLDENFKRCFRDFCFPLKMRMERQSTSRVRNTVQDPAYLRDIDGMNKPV

Substance Dynorphin 1-7 (peptide) showed an inhibition of LPS-stimulated NF-κB/p65 nuclear translocation in differentiated THP-1 cells by DYN 1-7 at 10 nM, relative to the LPS control group; reversed by the KOP receptor antagonist ML-190 (1 μM) in test [1] of 44%. In addition, in test [2], the reduction of LPS-stimulated IL-1β and TNF-α release from differentiated THP-1 cells by DYN 1-7 (0.1 μM, 1 nM, 10 pM; 24 hr; AlphaLISA); reversed by ML-190 at 10 pM (IL-1β, TNF-α) and at 1 nM (TNF-α) is 15 to 30%.
